The values that follow come from the DeepSol protein solubility set.

A short description of the data set: soluble on expression in E. coli; label from the status in PepcDB or PDB records.
With “MRGSHHHHHHGSLMPGGKEFYNFYPEYVVGLQWMGDNYVFIEGDDLVFNKANGKSAQTTRFSAADLNALMPEGCKFQTTDAFPSFRTLDAGRGLVVLFTQGGLVGFDMLARKVTYLFDTNEETASLDFSPVGDRVAYVRNHNLYIARGGKLGEGMSRAIAVTIDGTETLVYGQAVHQREFGIEKGTFWSPKGSCLAFYRMDQSMVKPTPIVDYHPLEAESKPLYYPMAGTPSHHVTVGIYHLATGKTVYLQTGEPKEKFLTNLSWSPDENILYVAEVNRAQNECKVNAYDAETGRFVRTLFVETDKHYVEPLHPLTFLPGSNNQFIWQSRRDGWNHLYLYDTTGRLIRQVTKGEWEVTNFAGFDPKGTRLYFESTEASPLERHFYCIDIKGGKTKDLTPESGMHRTQLSPDGSAIIDIFQSPTVPRKVTVTNIGKGSHTLLEAKNPDTGYAMPEIRTGTIMAADGQTPLYYKLTMPLHFDPAKKYPVIVYVYGGPHAQLVTKTWRSSVGGWDIYMAQKGYAVFTVDSRGSANRGAAFEQVIHRRLGQTEMADQMCGVDFLKSQSWVDADRIGVHGWAYGGFMTTNLMLTHGDVFKVGVAGGPVIDWNRYEIMYGERYFDAPQENPEGYDAANLLKRAGDLKGRLMLIHGAIDPVVVWQHSLLFLDACVKARTYPDYYVYPSHEHNVMGPDRVHLYETITRYFTDHL”, the “soluble on expression in E. coli” value is listed as “soluble”.
The result for “MRGSHHHHHHGSLVPRGSMVAADAPAAGTDITNQLTNVTVGIDSGTTVYPHQAGYVKLNYGFSVPNSAVKGDTFKITVPKELNLNGVTSTAKVPPIMAGDQVLANGVIDSDGNVIYTFTDYVNTKDDVKATLTMPAYIDPENVKKTGNVTLATGIGSTTANKTVLVDYEKYGKFYNLSIKGTIDQIDKTNNTYRQTIYVNPSGDNVIAPVLTGNLKPNTDSNALIDQQNTSIKVYKVDNAADLSESYFVNPENFEDVTNSVNITFPNPNQYKVEFNTPDDQITTPYIVVVNGHIDPNSKGDLALRSTLYGYNSNIIWRSMSWDNEVAFNNGSGSGDGIDKPVVPEQPDEPGEIEPIPEK” reads “soluble”.
The result for “MRGSHHHHHHGSMKRAVITGLGIVSSIGNNQQEVLASLREGRSGITFSQELKDSGMRSHVWGNVKLDTTGLIDRKVVRFMSDASIYAFLSMEQAIADAGLSPEAYQNNPRVGLIAGSGGGSPRFQVFGADAMRGPRGLKAVGPYVVTKAMASGVSACLATPFKIHGVNYSISSACATSAHCIGNAVEQIQLGKQDIVFAGGGEELCWEMACEFDAMGALSTKYNDTPEKASRTYDAHRDGFVIAGGGGMVVVEELEHALARGAHIYAEIVGYGATSDGADMVAPSGEGAVRCMKMAMHGVDTPIDYLNSEGTSTPVGDVKELAAIREVFGDKSPAISATKAMTGHSLGAAGVQEAIYSLLMLEHGFIAPSINIEELDEQAAGLNIVTETTDRELTTVMSNSFGFGGTNATLVMRKLKD” reads “soluble”; that for “MRGSHHHHHHGSVIFDKRIKDEEDVEKELGLPVLGSIQKFNMTNTRRSTSSLIVHEQPKSPISEKFRGIRSNIMFANPDSAVQSIVITSEAPGAGMSTIAANLAVAYAQAGYKTLIVDGDMRKPTQHYIFNLPNNEGLSSLLLNWSTYQDSIISTEIEDLDVLTSGPIPPNPSELITSRAFANLYDTLLMNYNFVIIDTPPVNTVTDAQLFSKFTGNVVYVVNSENNNKDEVKKGKELIEATGAKLLGVVLNRMPKDKSASYYAYYGTDES”, “soluble”; that for “MRGSHHHHHHTDPALRAPKSVIIPAGSSAPLAPFVPGTLADGVVYVSGTLAFDQHNNVLFADDPKAQTRHVLETIRKVIETAGGTMADVTFNSIFITDWKNYAAINEIYAEFFPGDKPARFCIQCGLVKPDALVEIATIAHIAKGLCGR”, “soluble”.
The result for “MRGSHHHHHHTDPALRASSFQFEQIGVIRSPYKEKFAVPRQPGLVKSANGELHLIAPYNQADAVRGLEAFSHLWILFVFHQTMEGGWRPTVRPPRLGGNARMGVFATRSTFRPNPIGMSLVELKEVVCHKDSVILKLGSLDLVDGTPVVDIKPYLPFAESLPDASASYAQSAPAAEMAVSFTAEVEKQLLTLEKRYPQLTLFIREVLAQDPRPAYRKGEETGKTYAVWLHDFNVRWRVTDAGFEVFALEPRGLCGR” reads “soluble”; that for “MRHREWSRATEGDRTMATTIATLTQKTDGILEGVFATIRVNAPIAIIPNASKSSEEAPDYRVIHRKTGFEIGAGWNRIARQTGEEYLSVKLEAPEIGVIFGNLAPAPGGDPSKKVILWNNPD”, “not soluble”.
For the sequence “MRIAVASGKGGTGKTTVAVNLAVFNHIDLFDLDVEEPNDRIFIKGEAEEWPAYRKVPEVRENCNACGVCKDVCQYSAIYVIDKAYPLPELCHSCGACIYLCPEKAMEEVDYQTGKIVRVKSDITLTYGEMRIGEASAVFLIKQVKELMGKNAIIDSPPGASCPMVESVSDADYVILVAEPTPFGLHDLKIAAEVVSDLGLKFGVVVNKHGLPFDGIERYCKEGGVEILGKIPFSKEIAEKYSRGELLHDMKDFFVQLYEGIALEHHHHHH”, the “soluble on expression in E. coli” value was “soluble”.
The result for “MRIDILTLFPGMFSGVLSESILKKAQEKGAVDIRLIDFREFADNKHKTVDDYPYGGGAGMVLKPQPIFDAVEHVTAGSPGARIILLCPQGERYTQKKAEELAKETHLVLICGHYEGYDERIRQYLATDEISIGDYILTGGELGAMVIVDSVVRLLPGVLGNEASPVDDSFSSGLLEYPQYTRPADFRGMKVPDILLSGNHQLIAEWREKESLRRTFLRRPDLLDEYPLTDKQKQWLKEWEKERE” reads “soluble”; that for “MRIIKFPEQISEDIIHYTFLDDIISYNCEKCRGSCCHVNNSLLLDAKTASFLKRTYLKDFIVSDDSVSLLSCGKKCWFHSELGCTINDLGLNKPLTCELYPFHIKKIQNFYIVSFTPCPTFQLNLGEGQRYKDIEDVVLRYIKTGVPVFSPSLHVSEERLKYEIEYQNNFKNTLSEYYRTKTADGTTEFKEYEKWYIYYLDFRWGSIPLSYTSSQANQFWNLYKRVCEDVYKKISYIRTDNIYFIIANQFNKTISKHFQLNFIDKE”, “soluble”.
The result for “MRILDYDKVIERILEFIREKGNNGVVIGISGGVDSATVAYLATKALGKEKVLGLIMPYFENKDVEDAKLVAEKLGIGYKVINIKPIVDSFVENLELNLDRKGLGNIMSRTRMIMLYAHANSLGRIVLGTSNRSEFLTGYFTKWGDGASDYAPIINLYKTEVWEIAKRIGVPERIVKKKPSAGLWEGQTDEDELGISYNLLDEILWRMIDLKIGKEEIAKDLGIPLSLVERVEELIKKSEHKRRLPIGPSFEDLIVGP” reads “soluble”; that for “MRILFIGDVVGSLGREALATYVPKLKKKYRPQVTIANGENAASGRGITGKIYKKFLQDGVDVVTMGNHTWDNKDIFEFIDDAKKMVRPANFPEDVPGQGMVFVKVNQLELAVINLQARTFMVPLEDPFKKAAELVAIARKRTPLIFVDFHGETTSEKQAMSWFLDGQVSAVVGTHTHVQTNDARILPKGTAFLSDVGMTGPYDGILGMKREPIIEKFMTALPKRFEVVETGRTILSACILEIDDQTGQAKMIEPIQISEDRPFQE”, “not soluble”; that for “MRILHTSDWHLGKNLEGYSRMDEQEEFLEDFIKIVEENNIDMVVIAGDIYDTYNPPARAEKMFYSTLKKISQNGERVTLVIAGNHDNPERLVAAGPLARDHGIIMVGTPKSVVPTGEYGKHKVLSSKEGFIEIEVNGERASIITLPYPSEKRLNEVLYEEMDSEEEKVKSYGDRIKQLFDRLSENFRDDTINMVVSHLFAMGSEEGGSERNVQLGGSFIVNGDCFPKNAQYVALGHVHKPQLVPGTHKIARYSGSPIQYNKKEINFKKKCFLVNIEAGKEPIVDEIEFKVYKPIEVWKCTGVEEAIKKCEENKDRDCWVYLEIVTDKYIGEEEMKAMKSLKKDILEILPKVSVDNEIIDMASFKERPFEEIFKEFYKKERKVEPDNEVVDLLLSIINGGEAEDETHKS”, “not soluble”.
The result for “MRIPLVGKDSIESKDIGFTLIHEHLRVFSEAVRQQWPHLYNEDEEFRNAVNEVKRAMQFGVKTIVDPTVMGLGRDIRFMEKVVKATGINLVAGTGIYIYIDLPFYFLNRSIDEIADLFIHDIKEGIQGTLNKAGFVKIAADEPGITKDVEKVIRAAAIANKETKVPIITHSNAHNNTGLEQQRILTEEGVDPGKILIGHLGDTDNIDYIKKIADKGSFIGLDRYGLDLFLPVDKRNETTLRLIKDGYSDKIMISHDYCCTIDWGTAKPEYKPKLAPRWSITLIFEDTIPFLKRNGVNEEVIATIFKENPKKFFS” reads “soluble”.
For the sequence “MRITDVRTAVVEANYDWTFVRIYTDEGLTGLGESFLAPGLTGIIRDLKPLLVGQDPLDVDRLFSRMRWAASGAGSVAGLVYNAISGIEAALWDLAGKHYGVPVFRLLGGRHRDRVRVYADCHAGEALEALSSVMIPRRPRWLSPAGAPPPAGDPVHGRAFGLEEPGEAFTPEMYAARAREVAAMGFTALKFDLDVPNPHTLDPHSGTLTHAEIRHMVSLVEAVREAVGDGVDIAFDLHWRYNVSDAVRLACELEPYGLMWLEDPVPPENVEALRRVTRSTRTPIASGENLYLRHGFREALERGALDIAAPDLQKCGGLLEGRRIADMADAHYVAVAPHCIASPIGTVAAAHVAAAVPNFLALEWHGMSVPFWEEMAAGFDGPVIRDGYIEVPEAPGLGVELNEEVARRYAREGEPFF”, the “soluble on expression in E. coli” value is given as “soluble”.
In the case of “MRKALKDSKRIVVKVGTSTLTYENGSVNLMRIEKLSRVISDICNMGKEVVLVSSGAIGVGVGKLRLEKKPETIREKQAVAAVGQCALMHIYNKFFGEYSHVVAQVLLTRDVLENERMKNNVCNTFDTLLEKGIIPIVNENDAISIDEIQNILNFGDNDNLSAIVSTLVNADTLIILSDIDGFYDSDPRTNEDSKMLKEVYEITPEIEECAGGAGSNRGTGGMVTKLSAAKVATSNGIDMILANGENPEILIDILNGEDIGTMFVAKKGELEHHHHHH”, the “soluble on expression in E. coli” value is recorded as “not soluble”.
The result for “MRKEGYKSGFVAIIGRPNVGKSTFLNRVIGQKIAIMSDKPQTTRNKIQGVYTDDDAQIIFIDTPGVHKPKHKLGDFMMKVALNALREVDLILFMVNAEEGFGRGEAFIIERLKEVDTPVFLVINKIDRVHPDELLPLIDRYKDLYPFAEIVPISALEGNNVDRLLEQIKERLPEGPQYYPPDQITDHPEQFIIAELIREKALHLTREEVPHSIAVVVERIERREGSPTVYISAVIVVERDSQKGIIIGKQGRMLKEIGQRARADIEALLGSRVFLELWVKVQKDWRNRLSQLRDFGFREDEY” reads “soluble”.
With “MRKIIKGREPDAWLKYRCTPGAVYQRKPALADSLLLEQGYVCAYCEKRIDVQDLRVEHIKPRSQYPAQQLSYSNMVACCSGQSQGSAHCDCSKKDEEITLNLFTDALFLSISYKHDGTISSANKSWNDDINITLNLNCLSLKENRKLALEGLLEIIKKEDYSQGVLKRLKARYEAKDKGHKFAEYRGIILYYIDKKLSP”, the “soluble on expression in E. coli” value is recorded as “not soluble”.
